How the values were obtained:
HeLa Kyoto [1] = assay: solubility in G1/S (NP-40 vs SDS abundance) (log2 ratio); higher = more soluble; conditions: cell cycle stage: G1/S
HeLa Kyoto [2] = assay: solubility change mitosis vs G1/S (difference of NP-40 vs SDS log2 ratios) (log2 ratio difference); higher = more soluble in mitosis
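For solubility change mitosis vs G1/S (difference of NP-40 vs SDS log2 ratios) in this document: synchronized HeLa Kyoto cells (double thymidine block for G1/S, nocodazole release for mitosis), protein amounts in NP-40 versus SDS lysates quantified by mass spectrometry, three biological replicates.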
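For solubility in G1/S (NP-40 vs SDS abundance) in this document: HeLa Kyoto cells arrested at G1/S by double thymidine block, proteins quantified by TMT10plex mass spectrometry in mild NP-40 versus SDS extracts, three biological replicates.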

| Substance | solubility in G1/S (log2) (HeLa Kyoto [1]) | solubility change mitosis (log2) (HeLa Kyoto [2]) |
| --- | --- | --- |
| MDVHDLFRRLGAGAKFDTRRFSADAARFQIGKRKYDFDSSEVLQGLDFFGNKKSVPGVCGASQTHQKPQNGEKKEESLTERKREQSKKKRKTMTSEIASQEEGATIQWMSSVEAKIEDKKVQRESKLTSGKLENLRKEKINFLRNKHKIHVQGTDLPDPIATFQQLDQEYKINSRLLQNILDAGFQMPTPIQMQAIPVMLHGRELLASAPTGSGKTLAFSIPILMQLKQPANKGFRALIISPTRELASQIHRELIKISEGTGFRIHMIHKAAVAAKKFGPKSSKKFDILVTTPNRLIYLLKQDPPGIDLASVEWLVVDESDKLFEDGKTGFRDQLASIFLACTSHKVRRAMFSATFAYDVEQWCKLNLDNVISVSIGARNSAVETVEQELLFVGSETGKLLAVRELVKKGFNPPVLVFVQSIERAKELFHELIYEGINVDVIHAERTQQQRDNTVHSFRAGKIWVLICTALLARGIDFKGVNLVINYDFPTSSVEYIHRIGRTGRAGNKGKAITFFTEDDKPLLRSVANVIQQAGCPVPEYIKGFQKLLSKQKKKMIKKPLERESISTTPKCFLEKAKDKQKKVTGQNSKKKVALEDKS [DDX52] | -1.37 | 1.04 |
| MSSPGIDGDPKPPCLPRNGLVKLPGQPNGLGAASITKGTPATKNRPCQPPPPPTLPPPSLAAPLSRAALAGGPCTPAGGPASALAPGHPAERPPLATDEKILNGLFWYFSACEKCVLAQVCKAWRRVLYQPKFWAGLTPVLHAKELYNVLPGGEKEFVNLQGFAARGFEGFCLVGVSDLDICEFIDNYALSKKGVKAMSLKRSTITDAGLEVMLEQMQGVVRLELSGCNDFTEAGLWSSLSARITSLSVSDCINVADDAIAAISQLLPNLAELSLQAYHVTDTALAYFTARQGHSTHTLRLLSCWEITNHGVVNVVHSLPNLTALSLSGCSKVTDDGVELVAENLRKLRSLDLSWCPRITDMALEYVACDLHRLEELVLDRCVRITDTGLSYLSTMSSLRSLYLRWCCQVQDFGLKHLLALGSLRLLSLAGCPLLTTTGLSGLVQLQELEELELTNCPGATPELFKYFSQHLPRCLVIE [FBXL16] | 0.0543 | 0.212 |
| MAPALLLIPAALASFILAFGTGVEFVRFTSLRPLLGGIPESGGPDARQGWLAALQDRSILAPLAWDLGLLLLFVGQHSLMAAERVKAWTSRYFGVLQRSLYVACTALALQLVMRYWEPIPKGPVLWEARAEPWATWVPLLCFVLHVISWLLIFSILLVFDYAELMGLKQVYYHVLGLGEPLALKSPRALRLFSHLRHPVCVELLTVLWVVPTLGTDRLLLAFLLTLYLGLAHGLDQQDLRYLRAQLQRKLHLLSRPQDGEAE [NRM] | -0.275 | 0.167 |
| MWGFRLLRSPPLLLLLPQLGIGNASSCSQARTMNPGGSGGARCSLSAEVRRRQCLQLSTVPGADPQRSNELLLLAAAGEGLERQDLPGDPAKEEPQPPPQHHVLYFPGDVQNYHEIMTRHPENYQWENWSLENVATILAHRFPNSYIWVIKCSRMHLHKFSCYDNFVKSNMFGAPEHNTDFGAFKHLYMLLVNAFNLSQNSLSKKSLNVWNKDSIASNCRSSPSHTTNGCQGEKVRTCEKSDESAMSFYPPSLNDASFTLIGFSKGCVVLNQLLFELKEAKKDKNIDAFIKSIRTMYWLDGGHSGGSNTWVTYPEVLKEFAQTGIIVHTHVTPYQVRDPMRSWIGKEHKKFVQILGDLGMQVTSQIHFTKEAPSIENHFRVHEVF [C2ORF69] | 0.0592 | 0.0615 |
| PTPN6 | 0.166 | 0.0101 |
| MADWARAQSPGAVEEILDRENKRMADSLASKVTRLKSLALDIDRDAEDQNRYLDGMDSDFTSMTSLLTGSVKRFSTMARSGQDNRKLLCGMAVGLIVAFFILSYFLSRART [BET1L] | -0.104 | 0.0489 |
| MTLKASEGESGGSMHTALSDLYLEHLLQKRSRPEAVSHPLNTVTEDMYTNGSPAPGSPAQVKGQEVRKVRLIQFEKVTEEPMGITLKLNEKQSCTVARILHGGMIHRQGSLHVGDEILEINGTNVTNHSVDQLQKAMKETKGMISLKVIPNQQSRLPALQMFMRAQFDYDPKKDNLIPCKEAGLKFATGDIIQIINKDDSNWWQGRVEGSSKESAGLIPSPELQEWRVASMAQSAPSEAPSCSPFGKKKKYKDKYLAKHSSIFDQLDVVSYEEVVRLPAFKRKTLVLIGASGVGRSHIKNALLSQNPEKFVYPVPYTTRPPRKSEEDGKEYHFISTEEMTRNISANEFLEFGSYQGNMFGTKFETVHQIHKQNKIAILDIEPQTLKIVRTAELSPFIVFIAPTDQGTQTEALQQLQKDSEAIRSQYAHYFDLSLVNNGVDETLKKLQEAFDQACSSPQWVPVSWVY [MPP1] | 0.098 | -0.0545 |
| MGMACLTMTEMEGTSTSSIYQNGDISGNANSMKQIDPVLQVYLYHSLGKSEADYLTFPSGEYVAEEICIAASKACGITPVYHNMFALMSETERIWYPPNHVFHIDESTRHNVLYRIRFYFPRWYCSGSNRAYRHGISRGAEAPLLDDFVMSYLFAQWRHDFVHGWIKVPVTHETQEECLGMAVLDMMRIAKENDQTPLAIYNSISYKTFLPKCIRAKIQDYHILTRKRIRYRFRRFIQQFSQCKATARNLKLKYLINLETLQSAFYTEKFEVKEPGSGPSGEEIFATIIITGNGGIQWSRGKHKESETLTEQDLQLYCDFPNIIDVSIKQANQEGSNESRVVTIHKQDGKNLEIELSSLREALSFVSLIDGYYRLTADAHHYLCKEVAPPAVLENIQSNCHGPISMDFAISKLKKAGNQTGLYVLRCSPKDFNKYFLTFAVERENVIEYKHCLITKNENEEYNLSGTKKNFSSLKDLLNCYQMETVRSDNIIFQFTKCCPPKPKDKSNLLVFRTNGVSDVPTSPTLQRPTHMNQMVFHKIRNEDLIFNESLGQGTFTKIFKGVRREVGDYGQLHETEVLLKVLDKAHRNYSESFFEAASMMSKLSHKHLVLNYGVCVCGDENILVQEFVKFGSLDTYLKKNKNCINILWKLEVAKQLAWAMHFLEENTLIHGNVCAKNILLIREEDRKTGNPPFIKLSDPGISITVLPKDILQERIPWVPPECIENPKNLNLATDKWSFGTTLWEICSGGDKPLSALDSQRKLQFYEDRHQLPAPKWAELANLINNCMDYEPDFRPSFRAIIRDLNSLFTPDYELLTENDMLPNMRIGALGFSGAFEDRDPTQFEERHLKFLQQLGKGNFGSVEMCRYDPLQDNTGEVVAVKKLQHSTEEHLRDFEREIEILKSLQHDNIVKYKGVCYSAGRRNLKLIMEYLPYGSLRDYLQKHKERIDHIKLLQYTSQICKGMEYLGTKRYIHRDLATRNILVENENRVKIGDFGLTKVLPQDKEYYKVKEPGESPIFWYAPESLTESKFSVASDVWSFGVVLYELFTYIEKSKSPPAEFMRMIGNDKQGQMIVFHLIELLKNNGRLPRPDGCPDEIYMIMTECWNNNVNQRPSFRDLALRVDQIRDNMAG [JAK2] | -0.224 | 0.0233 |
| MARLTKRRQADTKAIQHLWAAIEIIRNQKQIANIDRITKYMSRVHGMHPKETTRQLSLAVKDGLIVETLTVGCKGSKAGIEQEGYWLPGDEIDWETENHDWYCFECHLPGEVLICDLCFRVYHSKCLSDEFRLRDSSSPWQCPVCRSIKKKNTNKQEMGTYLRFIVSRMKERAIDLNKKGKDNKHPMYRRLVHSAVDVPTIQEKVNEGKYRSYEEFKADAQLLLHNTVIFYGADSEQADIARMLYKDTCHELDELQLCKNCFYLSNARPDNWFCYPCIPNHELVWAKMKGFGFWPAKVMQKEDNQVDVRFFGHHHQRAWIPSENIQDITVNIHRLHVKRSMGWKKACDELELHQRFLREGRFWKSKNEDRGEEEAESSISSTSNEQLKVTQEPRAKKGRRNQSVEPKKEEPEPETEAVSSSQEIPTMPQPIEKVSVSTQTKKLSASSPRMLHRSTQTTNDGVCQSMCHDKYTKIFNDFKDRMKSDHKRETERVVREALEKLRSEMEEEKRQAVNKAVANMQGEMDRKCKQVKEKCKEEFVEEIKKLATQHKQLISQTKKKQWCYNCEEEAMYHCCWNTSYCSIKCQQEHWHAEHKRTCRRKR [ZMYND11] | -2.1 | 0.83 |
| MATPGPVIPEVPFEPSKPPVIEGLSPTVYRNPESFKEKFVRKTRENPVVPIGCLATAAALTYGLYSFHRGNSQRSQLMMRTRIAAQGFTVAAILLGLAVTAMKSRP [HIGD2A] | -0.399 | 0.482 |
| MASPEPRRGGDGAAQAARKTRVEANSPLPKNSGSLNEAEALNPEVTLSSEGSLNLEDILYLEDTGDLDETLYVQETEKAEEALYIEEAMQPDEALHVEEPGNPEETVCVEETTEPDRIQFVEGPVEPGKPTSPEHVVYEGETVTRAEKSNPEESLRAEQSPSMEENLSIEDLELLEGRFQQCVQAVAQLEEERDQLIHELVLLREPALQEVQQVHQDILAAYKLHAQAELERDGLREEIRLVKQKLFKVTKECVAYQYQLECRQQDVAQFADFREVLTTRATQLSEELAQLRDAYQKQKEQLRQQLEAPPSQRDGHFLQESRRLSAQFENLMAESRQDLEEEYEPQFLRLLERKEAGTKALQRTQAEIQEMKEALRPLQAEARQLRLQNRNLEDQIALVRQKRDEEVQQYREQLEEMEERQRQLRNGVQLQQQKNKEMEQLRLSLAEELSTYKAMLLPKSLEQADAPTSQAGGMETQSQGAV [SYNC] | 0.502 | 0.0968 |
| MAELRQVPGGRETPQGELRPEVVEDEVPRSPVAEEPGGGGSSSSEAKLSPREEEELDPRIQEELEHLNQASEEINQVELQLDEARTTYRRILQESARKLNTQGSHLGSCIEKARPYYEARRLAKEAQQETQKAALRYERAVSMHNAAREMVFVAEQGVMADKNRLDPTWQEMLNHATCKVNEAEEERLRGEREHQRVTRLCQQAEARVQALQKTLRRAIGKSRPYFELKAQFSQILEEHKAKVTELEQQVAQAKTRYSVALRNLEQISEQIHARRRGGLPPHPLGPRRSSPVGAEAGPEDMEDGDSGIEGAEGAGLEEGSSLGPGPAPDTDTLSLLSLRTVASDLQKCDSVEHLRGLSDHVSLDGQELGTRSGGRRGSDGGARGGRHQRSVSL [SH3BP5L] | 0.128 | -0.0461 |
| MTTRQATKDPLLRGVSPTPSKIPVRSQKRTPFPTVTSCAVDQENQDPRRWVQKPPLNIQRPLVDSAGPRPKARHQAETSQRLVGISQPRNPLEELRPSPRGQNVGPGPPAQTEAPGTIEFVADPAALATILSGEGVKSCHLGRQPSLAKRVLVRGSQGGTTQRVQGVRASAYLAPRTPTHRLDPARASCFSRLEGPGPRGRTLCPQRLQALISPSGPSFHPSTRPSFQELRRETAGSSRTSVSQASGLLLETPVQPAFSLPKGEREVVTHSDEGGVASLGLAQRVPLRENREMSHTRDSHDSHLMPSPAPVAQPLPGHVVPCPSPFGRAQRVPSPGPPTLTSYSVLRRLTVQPKTRFTPMPSTPRVQQAQWLRGVSPQSCSEDPALPWEQVAVRLFDQESCIRSLEGSGKPPVATPSGPHSNRTPSLQEVKIQRIGILQQLLRQEVEGLVGGQCVPLNGGSSLDMVELQPLLTEISRTLNATEHNSGTSHLPGLLKHSGLPKPCLPEECGEPQPCPPAEPGPPEAFCRSEPEIPEPSLQEQLEVPEPYPPAEPRPLESCCRSEPEIPESSRQEQLEVPEPCPPAEPRPLESYCRIEPEIPESSRQEQLEVPEPCPPAEPGPLQPSTQGQSGPPGPCPRVELGASEPCTLEHRSLESSLPPCCSQWAPATTSLIFSSQHPLCASPPICSLQSLRPPAGQAGLSNLAPRTLALRERLKSCLTAIHCFHEARLDDECAFYTSRAPPSGPTRVCTNPVATLLEWQDALCFIPVGSAAPQGSP [TROAP] | 0.0401 | 0.651 |

— the supplement of paper PMC5998384
